9 substances from article PMC4751435 (2016) can be followed below.

Common to all, as to assay: BRET
Test [1] has as its target luciferase-FOXP2 (wild-type, full-length 1-715) (UniProt O15409). Particulars: HEK293 cells, n = 3, read off a plot.
In the next test the target is luciferase-FOXP1 (UniProt Q9H334). Particulars: HEK293 cells, n = 3, read off a plot.
For test [2], the target named is luciferase-FOXP2 (wild-type, full-length 1-715) (UniProt O15409). Particulars: HEK293 cells, n = 3, read off a plot. This is another data set of the same source.
Test [3] deals with YFP-SUMO3 alanine mutant (AA), P55854-2. The following applies: HEK293 cells; n = 3; control donor (nuclear-targeted luciferase) est. 0.034; parent: est. 0.23; read off a plot.
Test [4] deals with YFP-SUMO2 alanine mutant (AA), P61956-1. The following applies: HEK293 cells; n = 3; control donor (nuclear-targeted luciferase) est. 0.028; parent: est. 0.20; read off a plot.
The target of test [5] is YFP-SUMO3 alanine mutant (AA), P55854-2. The following applies: HEK293 cells; n = 3; control donor (nuclear-targeted luciferase) est. 0.034; parent: est. 0.23; read off a plot. The source holds these as a separate data set.
The target in test [6] is YFP-SUMO2 alanine mutant (AA), P61956-1. Particulars: HEK293 cells; n = 3; control donor (nuclear-targeted luciferase) est. 0.028; parent: est. 0.20; read off a plot. This is another data set of the same source.
The target of test [7] is YFP-SUMO1 alanine mutant (AA), P63165-1. The following applies: HEK293 cells; n = 3; control donor (nuclear-targeted luciferase) est. 0.004; parent: est. 0.15; read off a plot.
Test [8] has the same target. Particulars: HEK293 cells; n = 3; control donor (nuclear-targeted luciferase) est. 0.005; parent: est. 0.15; read off a plot.
[9] abbreviates: control donor (nuclear-targeted luciferase) est. 0.034, parent: est. 0.23.
The mark [10] stands for this setting: control donor (nuclear-targeted luciferase) est. 0.028, parent: est. 0.20.

YFP-SUMO1 alanine mutant (AA), P63165-1, sequence (P63165 1-97, change not shown): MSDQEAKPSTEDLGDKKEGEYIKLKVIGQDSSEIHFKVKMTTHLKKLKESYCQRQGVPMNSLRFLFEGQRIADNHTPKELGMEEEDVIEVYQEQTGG
YFP-SUMO3 alanine mutant (AA), P55854-2, sequence (P55854 other isoform, or with tags, fused parts or gaps, change not shown): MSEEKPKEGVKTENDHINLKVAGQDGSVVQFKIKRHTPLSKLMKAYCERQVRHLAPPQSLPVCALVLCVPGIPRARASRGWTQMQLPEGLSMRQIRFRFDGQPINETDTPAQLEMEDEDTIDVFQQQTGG

In the case of “YFP-SUMO1 (wild-type, GG) (from UniProt P63165-1) AA”, the response in [1] (control donor (nuclear-targeted luciferase) est. 0.004, parent: est. 0.15) was 0.019 BRET ratio; with luciferase-FOXP1 (control donor (nuclear-targeted luciferase) est. 0.000, parent: est. 0.15), -0.043 BRET ratio; in test [2] (control donor (nuclear-targeted luciferase) est. 0.000, parent: est. 0.077), -0.017 BRET ratio; in [2] (control donor (nuclear-targeted luciferase) est. 0.005, parent: est. 0.15), 0.019 BRET ratio.
As to “YFP-SUMO3 (wild-type, GG) (from UniProt P55854) AA”, the response in test [1] (setting [9]) is 0.065 BRET ratio; with luciferase-FOXP1 (control donor (nuclear-targeted luciferase) est. 0.015, parent: est. 0.20) it was -0.035 BRET ratio; in test [2] (control donor (nuclear-targeted luciferase) est. 0.015, parent: est. 0.15), 0.012 BRET ratio; in test [2] (setting [9]) it was 0.065 BRET ratio.
In the case of m1; m12 FOXP2:K674R; SUMO3:AA, in test [3], the response stood at 0.043 BRET ratio.
Turning to m1; m11 FOXP2:K674R; SUMO2:AA, the response in [4] was 0.021 BRET ratio.
For the substance m1; m12 FOXP2:R553H; SUMO3:AA, in test [5], the response was determined as 0.027 BRET ratio.
As for m1; m11 FOXP2:R553H; SUMO2:AA, the response in test [6] worked out at 0.048 BRET ratio.
For the substance “YFP-SUMO2 (wild-type, GG) (from UniProt P61956-1) AA”, the response in [1] (setting [10]) was 0.032 BRET ratio; in the test with luciferase-FOXP1 (control donor (nuclear-targeted luciferase) est. 0.012, parent: est. 0.19), -0.036 BRET ratio; in test [2] (control donor (nuclear-targeted luciferase) est. 0.012, parent: est. 0.13), 0.005 BRET ratio; in test [2] (setting [10]) it was 0.032 BRET ratio.
Take m1; m10 FOXP2:R553H; SUMO1:AA: in [7], the response was found to be 0.008 BRET ratio.
On to m1; m10 FOXP2:K674R; SUMO1:AA, for which, in test [8], the response was 0.012 BRET ratio.
